# Laboratory results taken from the nanobody polyreactivity screen of Harvey et al. (2022).
# Test: yeast display, Sf9 membrane polyspecificity reagent, FACS + sequencing; frameworks hold sequencing errors
# Method in brief: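 Galactose induction of a Saccharomyces cerevisiae BJ5465 synthetic nanobody display library ran 36–48 hours. The cells were then stained for 1 hour at 4 °C with 10% biotinylated, detergent-solubilized Sf9 membrane reagent, pulled down on streptavidin microbeads and FACS-sorted into low and high (top ~1%) gates on expression and reagent-binding fluorescence. Labels for polyreactivity follow the gate of origin.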
row,Sequence,polyreactivity (PSR sort gate)
1,QVQLVESGGGLVKEGGSLRLRCAASGRTFYVNAMGWSRQAPGKERELFASISSSGGSTYYADSVKGRFTSSRDNAKNTVYLQMNRLKPEDTEVYYCAKGYWPFWRGDRFYWGQGTQVTVSS,high polyreactivity
2,QVQLVESGGGLVKEGGSLRLSCAASGITFSWNAMGWYRQAPGKERELVAAISSSGGSTYYADSVKGRFTISRDYAKNTVYLLMNSLKPEDTAVYFCNADRFWFHWVYSRYHYDYWGQGTQVTVSS,high polyreactivity
3,QVQLVESGGGLVKEGGSLRLSCAASGSIFDWYVMGWYRQAPRKERELVATITRDGSTNYADSVKGRFTISRDNAKNTVYLQMNSLKPEDTAVYYCAAVIRSNRLYDGGYWGQGTQVTVSS,low polyreactivity
4,QVQLVESGGGLVLAGGILRLSCAASGSTFKRYAMGWYRQAPGKVRELVAAITWRGGSTYYADSVKGRFTISRDNAKNTVYLQMNSLKPEDTAVYYCAARANYFGWPKSYYYWGQGTQVTVSS,high polyreactivity
5,QVQLVESGGGLVLAGGSLRLRCAASGRIFGQYTMGWYRQAPGKERELVAAISRSSSSKYADSVKRRFTISRDNAKNTGYLQMNSLKPEDTAVYYCAAYVYYYGGRTYDYWGQGTQLTVSS,high polyreactivity
6,QVQLVESGGGLVLAGGSLRLSCAASGLILPYYTMGWYREAPGKERELVAAIRRTTGSTFYADSVKGRFTISRDNAKNTVYLQMNSLKPEDTAVYYCNVRRTPYRHWTGGGMDYWGQGTQVTVSS,high polyreactivity
7,QVQLVESGGGLVLAGGSLRLSCAASGRTFRYYTMGWFRPAPGKEREFVAAISSTGGTYYADSVKGRFTISRDNAKNTVYLQMNSLNPEDTAVYYCAATFIQVVVNVQLYDYDYWGQGTQVTVSS,low polyreactivity
8,QVQLVESGGGLVLAGGSLRLSCAASGRTFVPYAMGWYRQAPGKERELVAAMSQSGGRTYYTDSVKGRFTISGETAKNTVYLQMNSLNPEDTAVYYCAADVRSSIGHFTLYDYWGQGTQVTVSS,high polyreactivity
9,QVQLVESGGGLVLAGGSLRLSCAASGRTFVQYAMGWYRQAPGTERELVAAISDRGGNTYYADSVKGRFTISRDNAKNTVYLQMNSLKPDDTAVYYCAAKIALDNDYWGQGTQVTVSS,high polyreactivity
10,QVQLVESGGGLVLAGGSLRLSCAASGSIFYVYAMGWYRQAPGKERELVASITWSGGRTYYADSVKGRFTISRDNAKNTVYLQMNSLKPEDTAVYYCNAVSFGARTTSYRYGSCGQGTQVTVSS,high polyreactivity
11,QVQLVESGGGLVLAGGSLRLSCAASGSTFTRNAMGWYRQAPGKERELVATISSGGSTNYADSVKGRFTISRDNAKNTVYLQMNSLKPEDTAVYYCAKRSLYRYYYWGQGPQVTVSS,high polyreactivity
12,QVQLVESGGGLVLAGGSLSLSCAASGSTFIWNAMGWYRQAPGKERELVAAIRRGSSTNYADSVKGRFTISRDNAKNTVYLQMNSLKPEDTAVYYCAKKQVTTDVSSETFVLEMDYWGQGTQVTVSS,low polyreactivity
13,QVQLVESGGGLVPAGGSLRFSCAASGMTFFVNDRGSYRQAPGKERELLAVISFTGDSTFYADSVKGRFTISRDKAQNTVSLQMHSLKPEETAVYYSAADFRRGFSKYSYYLYFDFDYWGQGTQVTVSS,low polyreactivity
14,QVQLVESGGGLVPAGGSLRLSCAASGFIILYYAMGWYRHEPGKERELVAAITTRGGRTYYADSVKGRFTISRDNAKNTVYLQMYSLKPEDTALYYCAADHLYWGLEDESWGQGTQVTVSS,low polyreactivity
15,QVQLVESGGGLVPAGGSLRLSCAASGIIFGTYAMGWYRQEPGKERELVAAIRRTGTGTYYADSVKGRFTISRDNAKNTVYLQMNSLKPEDTAVYYCNVVRSYAYDYWGQGTQVTVSS,high polyreactivity
16,QVQLVESGGGLVPAGGSLRLSCAASGRTFYYYAMGWYRQAPGKERELVAAIRRSGSSTYYADSVKGRFTISRDNAKNTVYLQMNSLKPEDTAVYYCAARPRRPRSNYWGQGTQVSVSS,high polyreactivity
17,QVQLVESGGGLVPAGGSLRLSCAASGSIFGKNAMGSYRQAPGNERELVAAITRRGGSTYYADSVKGRFTISRDNAKNTVYLQMNSLKAEDTAVYYCAAVSHYPAGYDYWGQGTQVTVSS,high polyreactivity
18,QVQLVESGGGLVPARGSLRLSCAASGNIFFVYDMGWYRQAPGKERELVAAISWSGGSTYADSVKGRFTISRDNGKNNVYLQMNSLKPEDTGVYYCAADVAYVEYDYWGQGSQVTVSS,low polyreactivity
19,QVQLVESGGGLVQAAGSLRLSCAASGLIFQNYPMGWYRQAPGKERELVARISRRGGSTYYADSVKGRFTISRDNAKNPVYLQMISLKQEDTAVYYCAAGWTRWTSKRFEYWGQGTQVTVSS,high polyreactivity
20,QVQLVESGGGLVQAAGSLRLSCAASGRTFKVYAMGWYRQAPGKERELVAAITWRGGRTYYADSVKGRFTISSDNAKNTVYLQMNSLKPEDTAVYDCAADLYYLTHDYWGQGTQVTVSS,high polyreactivity
21,QVQLVESGGGLVQAAGSLRLSCAASGSIFETYAMGWYRHAPGKERELVAAITQSGGSTYYADSVKGRFTISRDNAKNTVYLQMNSLKPEDTEVYYCAADLFVWWNWGYEYWGQGTQVTVSS,low polyreactivity
22,QVQLVESGGGLVQAAGSLRLSCAASGSIFFYNAMGWYRQAPGIERELVAAITGGGGRTYYADSVKGRFTISRDNAKNTVYLQMNSLKPEDTAVYYCNKDWAQPYDYWGQGTQVTVSS,high polyreactivity
